# Results: PMC9482650, “Quantitative fragmentomics allow affinity mapping of interactomes” (Nature Communications, 2022)
# Columns and labels:
# Test in all cases: holdup assay
# Parameters in all cases: key: below the threshold = too weak to quantify, mostly under pKd 3.1 to 4
# [1] = molecular target: CASK, O14936
# [2] = molecular target: T1, DFNB31_1, Q9P202
# T1 sequence (Q9P202 135-233, limits assumed, looked up): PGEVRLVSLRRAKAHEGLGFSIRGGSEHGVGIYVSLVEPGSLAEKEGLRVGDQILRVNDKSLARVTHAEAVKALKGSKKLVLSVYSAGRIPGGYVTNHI
# [3] = molecular target: T2, DFNB31_2, Q9P202
# T2 sequence (Q9P202 274-371, limits assumed, looked up): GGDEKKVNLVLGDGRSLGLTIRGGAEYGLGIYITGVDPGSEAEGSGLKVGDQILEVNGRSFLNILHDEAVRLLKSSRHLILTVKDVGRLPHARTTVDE
# [4] = molecular target: DLG2_3, Q15700
# [5] = molecular target: T3, DLG3_1, Q92796
# T3 sequence (Q92796 125-227, limits assumed, looked up): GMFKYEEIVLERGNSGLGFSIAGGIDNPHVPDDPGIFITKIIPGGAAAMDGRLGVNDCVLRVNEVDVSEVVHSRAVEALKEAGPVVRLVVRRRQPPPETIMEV
# [6] = molecular target: T4, FRMPD1, Q5SYB0
# T4 sequence (Q5SYB0 52-145, limits assumed, looked up): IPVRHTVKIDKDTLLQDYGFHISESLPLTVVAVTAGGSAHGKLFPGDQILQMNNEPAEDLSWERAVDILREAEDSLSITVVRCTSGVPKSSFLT
# [7] = molecular target: FRMPD2_3, Q68DX3
# Chain of FRMPD2_3, Q68DX3 (Q68DX3 1073-1166): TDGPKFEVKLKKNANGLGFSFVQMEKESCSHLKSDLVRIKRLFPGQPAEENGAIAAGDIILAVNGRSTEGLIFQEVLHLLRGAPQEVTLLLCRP
# [8] = molecular target: GIPC2, Q8TF65
# Chain of GIPC2, Q8TF65 (Q8TF65 112-203): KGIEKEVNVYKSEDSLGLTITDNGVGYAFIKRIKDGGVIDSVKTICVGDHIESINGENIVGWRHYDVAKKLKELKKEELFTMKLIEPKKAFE
# [9] = molecular target: GRASP, Q7Z6J2
# Chain of GRASP, Q7Z6J2 (Q7Z6J2 96-193): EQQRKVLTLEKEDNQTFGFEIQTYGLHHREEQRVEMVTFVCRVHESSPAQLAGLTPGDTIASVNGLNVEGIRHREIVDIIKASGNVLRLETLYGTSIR
# [10] = molecular target: GRID2IP_1, A4D2P6
# Chain of GRID2IP_1, A4D2P6 (A4D2P6 1-87): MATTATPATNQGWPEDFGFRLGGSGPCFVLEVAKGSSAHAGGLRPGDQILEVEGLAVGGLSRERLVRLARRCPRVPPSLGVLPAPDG
# [11] = molecular target: GRIP2_3, Q9C0E4
# Chain of GRIP2_3, Q9C0E4 (Q9C0E4 238-339): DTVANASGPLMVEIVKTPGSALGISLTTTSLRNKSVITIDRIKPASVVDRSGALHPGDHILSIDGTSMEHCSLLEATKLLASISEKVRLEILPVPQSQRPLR
# [12] = molecular target: IL16_3, Q14005
# Chain of IL16_3, Q14005 (Q14005 1107-1207): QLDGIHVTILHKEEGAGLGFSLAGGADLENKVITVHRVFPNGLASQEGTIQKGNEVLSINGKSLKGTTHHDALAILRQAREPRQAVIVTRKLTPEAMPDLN
# [13] = molecular target: Inadl_1, Q8NI35
# Chain of Inadl_1, Q8NI35 (Q8NI35 113-229): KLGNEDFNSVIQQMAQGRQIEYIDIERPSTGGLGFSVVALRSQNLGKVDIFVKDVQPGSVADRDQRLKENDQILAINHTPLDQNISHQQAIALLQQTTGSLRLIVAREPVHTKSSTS
# [14] = molecular target: Inadl_10, Q8NI35
# Chain of Inadl_10, Q8NI35 (Q8NI35 1673-1763): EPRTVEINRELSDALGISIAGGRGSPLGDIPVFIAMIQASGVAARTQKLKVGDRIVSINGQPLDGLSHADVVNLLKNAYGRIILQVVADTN
# [15] = molecular target: Inadl_5, Q8NI35
# Chain of Inadl_5, Q8NI35 (Q8NI35 673-780): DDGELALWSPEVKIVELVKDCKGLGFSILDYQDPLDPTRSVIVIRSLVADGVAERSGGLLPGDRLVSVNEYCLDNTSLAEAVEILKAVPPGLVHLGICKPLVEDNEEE
# [16] = molecular target: T5, LIN7A, O14910
# T5 sequence (O14910 103-200, limits assumed, looked up): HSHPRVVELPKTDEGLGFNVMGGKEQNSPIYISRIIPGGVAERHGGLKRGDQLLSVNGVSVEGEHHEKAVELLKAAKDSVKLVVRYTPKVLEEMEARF
# [17] = molecular target: MAGI1_1, Q96QZ7
# Chain of MAGI1_1, Q96QZ7 (Q96QZ7 1-106): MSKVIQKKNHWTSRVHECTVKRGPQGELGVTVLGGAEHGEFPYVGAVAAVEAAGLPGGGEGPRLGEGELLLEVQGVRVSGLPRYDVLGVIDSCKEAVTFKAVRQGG
# [18] = molecular target: MAGI2_2, Q86UL8
# Chain of MAGI2_2, Q86UL8 (Q86UL8 410-522): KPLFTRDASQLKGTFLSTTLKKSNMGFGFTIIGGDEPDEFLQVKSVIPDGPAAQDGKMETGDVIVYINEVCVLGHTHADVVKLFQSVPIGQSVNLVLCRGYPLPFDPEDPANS
# [19] = molecular target: MAGI2_3, Q86UL8
# Chain of MAGI2_3, Q86UL8 (Q86UL8 600-682): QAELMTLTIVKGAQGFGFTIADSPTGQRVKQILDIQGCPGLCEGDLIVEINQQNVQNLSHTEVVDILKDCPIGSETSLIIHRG
# [20] = molecular target: T6, MPDZ_10, O75970
# T6 sequence (O75970 1624-1722, limits assumed, looked up): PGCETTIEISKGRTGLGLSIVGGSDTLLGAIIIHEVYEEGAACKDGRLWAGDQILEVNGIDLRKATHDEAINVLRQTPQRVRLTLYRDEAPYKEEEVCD
# [21] = molecular target: T7, MPDZ_5, O75970
# T7 sequence (O75970 695-796, limits assumed, looked up): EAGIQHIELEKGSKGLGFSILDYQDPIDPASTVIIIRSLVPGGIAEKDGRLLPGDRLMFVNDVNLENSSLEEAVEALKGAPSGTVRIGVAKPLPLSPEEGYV
# [22] = molecular target: T8, NHERF3_1, Q5T2W1
# T8 sequence (Q5T2W1 4-100, limits assumed, looked up): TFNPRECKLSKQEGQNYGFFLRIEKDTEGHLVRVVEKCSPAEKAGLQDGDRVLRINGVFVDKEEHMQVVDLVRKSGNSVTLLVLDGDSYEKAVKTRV
# [23] = molecular target: T9, PARD3B_1, Q8TEW8
# T9 sequence (Q8TEW8 196-299, limits assumed, looked up): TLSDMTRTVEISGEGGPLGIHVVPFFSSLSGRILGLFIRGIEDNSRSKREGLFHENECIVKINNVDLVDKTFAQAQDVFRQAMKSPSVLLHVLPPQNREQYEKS
# [24] = molecular target: PDLIM1, O00151
# Chain of PDLIM1, O00151 (O00151 1-87): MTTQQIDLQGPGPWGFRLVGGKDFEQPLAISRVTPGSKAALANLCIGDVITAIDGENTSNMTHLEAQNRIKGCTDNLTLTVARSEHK
# [25] = molecular target: T10, RADIL, Q96JH8
# T10 sequence (Q96JH8 971-1071, limits assumed, looked up): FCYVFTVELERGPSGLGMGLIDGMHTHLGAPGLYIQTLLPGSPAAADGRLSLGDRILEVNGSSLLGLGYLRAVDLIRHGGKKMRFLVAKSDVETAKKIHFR
# [26] = molecular target: SCRIB_1, Q14160
# Chain of SCRIB_1, Q14160 (Q14160 718-814): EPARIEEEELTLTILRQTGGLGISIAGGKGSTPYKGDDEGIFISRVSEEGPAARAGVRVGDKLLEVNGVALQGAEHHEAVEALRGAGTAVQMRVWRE
# [27] = molecular target: SCRIB_2, Q14160
# Chain of SCRIB_2, Q14160 (Q14160 857-960): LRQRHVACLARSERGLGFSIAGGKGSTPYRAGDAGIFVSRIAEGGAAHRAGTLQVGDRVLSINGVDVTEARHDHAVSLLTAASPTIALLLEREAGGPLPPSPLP
# [28] = molecular target: TJP2_1, Q9UDY2
# Chain of TJP2_1, Q9UDY2 (Q9UDY2 24-128): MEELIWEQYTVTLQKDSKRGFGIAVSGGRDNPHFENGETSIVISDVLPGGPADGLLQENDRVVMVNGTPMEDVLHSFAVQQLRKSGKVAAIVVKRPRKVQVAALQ
# [29] = plain residues with an end cap or a label only (N-terminal biotin on a linker: ttds)
# [30] = plain residues with an end cap or a label only (N-terminal biotin on a linker: ado-ado)
# Chain of CASK, O14936 (O14936 487-570): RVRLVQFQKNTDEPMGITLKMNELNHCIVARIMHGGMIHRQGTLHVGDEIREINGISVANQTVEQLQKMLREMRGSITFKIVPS
binder,measurement,setting,value
"DPRNTQTSQI [ABRAXAS2, Q15018]",pKd,[1]; [29],3.55
same,pKd,[2]; [29],4.06
same,pKd,[3]; [29],3.62
same,pKd,[4]; [29],3.53
same,pKd,[5]; [29],3.56
same,pKd,[6]; [29],below the threshold
same,pKd,[7]; [29],3.54
same,pKd,[8]; [29],3.54
same,pKd,[9]; [29],3.95
same,pKd,[10]; [29],below the threshold
same,pKd,[11]; [29],3.6
same,pKd,[12]; [29],below the threshold
same,pKd,[13]; [29],3.72
same,pKd,[14]; [29],3.52
same,pKd,[15]; [29],below the threshold
same,pKd,[16]; [29],below the threshold
same,pKd,[17]; [29],below the threshold
same,pKd,[18]; [29],3.59
same,pKd,[19]; [29],below the threshold
same,pKd,[20]; [29],below the threshold
same,pKd,[21]; [29],below the threshold
same,pKd,[22]; [29],3.91
same,pKd,[23]; [29],3.69
same,pKd,[24]; [29],below the threshold
same,pKd,[25]; [29],below the threshold
same,pKd,[26]; [29],4.02
same,pKd,[27]; [29],below the threshold
same,pKd,[28]; [29],below the threshold
"TETASVCTKV [SLC23A1, Q9UHI7]",pKd,[1]; [30],below the threshold
same,pKd,[2]; [30],4.18
same,pKd,[3]; [30],below the threshold
same,pKd,[4]; [30],below the threshold
same,pKd,[5]; [30],below the threshold
same,pKd,[6]; [30],below the threshold
same,pKd,[7]; [30],below the threshold
same,pKd,[8]; [30],3.6
same,pKd,[9]; [30],4.43
same,pKd,[10]; [30],3.97
same,pKd,[11]; [30],below the threshold
same,pKd,[12]; [30],below the threshold
same,pKd,[13]; [30],below the threshold
same,pKd,[14]; [30],3.78
same,pKd,[15]; [30],below the threshold
same,pKd,[16]; [30],below the threshold
same,pKd,[17]; [30],below the threshold
same,pKd,[18]; [30],3.48
same,pKd,[19]; [30],4.16
same,pKd,[20]; [30],3.73
same,pKd,[21]; [30],below the threshold
same,pKd,[22]; [30],4.54
same,pKd,[23]; [30],3.61
same,pKd,[24]; [30],below the threshold
same,pKd,[25]; [30],3.96
same,pKd,[26]; [30],3.99
same,pKd,[27]; [30],3.77
same,pKd,[28]; [30],3.72
"FVHPILQSAV [PRKCA, P17252]",pKd,[1]; [30],below the threshold
same,pKd,[2]; [30],4.29
same,pKd,[3]; [30],below the threshold
same,pKd,[4]; [30],3.74
same,pKd,[5]; [30],3.49
same,pKd,[6]; [30],below the threshold
same,pKd,[7]; [30],below the threshold
same,pKd,[8]; [30],below the threshold
same,pKd,[9]; [30],5.13
same,pKd,[10]; [30],below the threshold
same,pKd,[11]; [30],below the threshold
same,pKd,[12]; [30],below the threshold
same,pKd,[13]; [30],below the threshold
same,pKd,[14]; [30],below the threshold
same,pKd,[15]; [30],below the threshold
same,pKd,[16]; [30],below the threshold
same,pKd,[17]; [30],below the threshold
same,pKd,[18]; [30],3.9
same,pKd,[19]; [30],3.83
same,pKd,[20]; [30],below the threshold
same,pKd,[21]; [30],below the threshold
same,pKd,[22]; [30],4.82
same,pKd,[23]; [30],below the threshold
same,pKd,[24]; [30],below the threshold
same,pKd,[25]; [30],3.57
same,pKd,[26]; [30],4.57
same,pKd,[27]; [30],4.29
same,pKd,[28]; [30],below the threshold
"LCALPKVTTV [AGMAT, Q9BSE5]",pKd,[1]; [29],below the threshold
same,pKd,[2]; [29],below the threshold
same,pKd,[3]; [29],3.77
same,pKd,[4]; [29],4.64
same,pKd,[5]; [29],4.27
same,pKd,[6]; [29],below the threshold
same,pKd,[7]; [29],below the threshold
same,pKd,[8]; [29],below the threshold
same,pKd,[9]; [29],4.47
same,pKd,[10]; [29],below the threshold
same,pKd,[11]; [29],below the threshold
same,pKd,[12]; [29],below the threshold
same,pKd,[13]; [29],3.57
same,pKd,[14]; [29],below the threshold
same,pKd,[15]; [29],below the threshold
same,pKd,[16]; [29],3.64
same,pKd,[17]; [29],below the threshold
same,pKd,[18]; [29],4.18
same,pKd,[19]; [29],4.4
same,pKd,[20]; [29],4.14
same,pKd,[21]; [29],below the threshold
same,pKd,[22]; [29],below the threshold
same,pKd,[23]; [29],below the threshold
same,pKd,[24]; [29],below the threshold
same,pKd,[25]; [29],4.59
same,pKd,[26]; [29],4.39
same,pKd,[27]; [29],below the threshold
same,pKd,[28]; [29],3.91
